Test results taken from patent publication US20250296971A1, “GASTRIC INHIBITORY PEPTIDE RECEPTOR LIGANDS” (priority 2021, published 2025).
*1 amine or outer side, *2 acyl side, *3 side chain or, on linkers, in order; H or OH if unused. Bridges are numbered along the chain shown (N, C = ends). Primed or numbered codes have the meaning given here. Where no end group is shown, it is not given here. Side-chain parts run from the residue outwards. [ ]: non-standard residue; d: D form. The star is where a group is joined. TBMB(SCH2CH2NH-DOTA) = O=C(O)CN1CCN(CC(=O)O)CCN(CC(=O)NCCSCc2cc(C[*:1])cc(C[*:2])c2)CCN(CC(=O)O)CC1; Ttds = 1,13-diamino-4,7,10-trioxatridecan-succinamic acid, NCCCOCCOCCOCCCNC(=O)CCC(=O)*; DOTA(In) = O=C1CN2CCN3CCN(CC(=O)*)CCN(CC2)CC(=O)[O][In]([O]1)[O]C(=O)C3; NH(1-deoxy-D-glucityl) = OC[C@@H](O)[C@@H](O)[C@H](O)[C@@H](O)CN*; Pro(trans-4-NH2) = O=C([C@@H]1C[C@@H](N[*:3])CN1[*:1])[*:2]; DOTA = O=C(O)CN1CCN(CC(=O)O)CCN(CC(=O)*)CCN(CC(=O)O)CC1; MeO2kDaPEGAc = polydisperse 2 kDa PEG (methoxy, acetyl); 3MeBn = 3-methyl-benzylidene (derived from 1,3-xylene); 2Lut = 2,6-lutidylidene bridge between two thiols; Trp(5-Cl) = N[C@@H](Cc1c[nH]c2ccc(Cl)cc12)C(=O)O; Pyridine(2,6-diCH2) = c1cc(C[*:1])nc(C[*:2])c1; Trp(6-F) = N[C@@H](Cc1c[nH]c2cc(F)ccc12)C(=O)O; 2Lut″ = 2,6-lutidylidene linking two thiols; APAc = 4-amino-1-carboxymethylpiperidine; mXylylene = c1cc(C[*:1])cc(C[*:2])c1; LuDOTA = DOTA Lutetium(III) complex; Glutaryl = O=C(CCCC(=O)[*:2])[*:1]; AGLU = 1-amino-1-deoxy-D-glucitol; Hyp = O=C(O)[C@@H]1C[C@@H](O)CN1; Cysteamide = C(CS[*:3])N[*:1]; dGlu(AGLU) = not defined here; Suc = O=C(CCC(=O)[*:2])[*:1]; ZnDOTA = DOTA zinc complex; αMeS = C[C@](N)(CO)C(=O)O; Api = NC1(C(=O)O)CCNCC1; Thp = NC1(C(=O)O)CCOCC1; AEEA = NCCOCCOCC(=O)O; Aib = CC(C)(N)C(=O)O; Sar = CNCC(=O)O

B1: DOTA-Ttds-Asp-Trp-5Clw-Nmg-Glu-leu-[Cys(3MeBn)-Aib-Leu-Ile-AET] (peptide)
peptide: {DOTA-Ttds}-DW[Trp(5-Cl)][Sar]E[dL]C[Aib]LI[Cysteamide]
modifications: linker (positions not given here) via mXylylene; not fully specified (bridges); printed as DOTA-Ttds-Asp-Trp-5Clw-Nmg-Glu-leu-[Cys(3MeBn)-Aib-Leu-Ile-AET]

Biological target: human Gastric Inhibitory Peptide Receptor (human) (UniProt P48546)
Assay: FACS competition with GIP-057 on CHO-K1-hGIPR cells; pIC50 category A: >8.0

pIC50, > 8 pic50:
MeO2kDaPEGAc-DW[Trp(5-Cl)][Hyp]E[dL]C[Thp]LIC-{dK(DOTA)-NH2} (linker 7-11 via Pyridine(2,6-diCH2)) [MeO2kDaPEGAc-Asp-Trp-5Clw-Hyp-Glu-leu-[Cys(2Lut)-Thp-Leu-Ile-Cys]-lys(DOTA)-NH2]
{LuDOTA-Ttds}-DW[Trp(5-Cl)]PE[dL]C[Thp]LI[Cysteamide] (linker 7-11 via mXylylene) [LuDOTA-Ttds-Asp-Trp-5Clw-Pro-Glu-leu-[Cys(3MeBn)-Thp-Leu-Ile-AET]]
Suc-W[Trp(5-Cl)][Hyp]E[dL]C[Thp]LIC-{Lys(DOTA)-NH2} (linker 6-10 via Pyridine(2,6-diCH2)) [HO-Succinyl-Trp-5Clw-Hyp-Glu-leu-[Cys(2Lut)-Thp-Leu-Ile-Cys]-Lys(DOTA)-NH2]
Ac-DW[Trp(5-Cl)][Hyp]E[dL]C[Api](DOTA)LIC-NH2 (linker 7-11 via Pyridine(2,6-diCH2)) [Ac-Asp-Trp-5Clw-Hyp-Glu-leu-[Cys(2Lut)-Apc(DOTA)-Leu-Ile-Cys]-NH2]
Ac-DW[Trp(5-Cl)][Hyp]E[dL]C[Thp]LIC-NH2 (linker 7-11 via TBMB(SCH2CH2NH-DOTA)) [Ac-Asp-Trp-5Clw-Hyp-Glu-leu-[Cys(tMeBn(DOTA-AET))-Thp-Leu-Ile-Cys]-NH2]
B1
Ac-DW[Trp(5-Cl)][Pro(trans-4-NH2)]E[dL]C[Api](DOTA)LIC-NH2 (linker 7-11 via 2Lut″) [Ac-Asp-Trp-5Clw-Tap-Glu-leu-[Cys(2Lut)-Apc(DOTA)-Leu-Ile-Cys]-NH2]
W[Trp(5-Cl)][Hyp]E[dL]C[Thp]LIC-{dK(DOTA)-NH2} (linker 6-10 via 2Lut; not fully specified (N-terminus)) [HO-Succinyl-Trp-5Clw-Hyp-Glu-leu-[Cys(2Lut)-Thp-Leu-Ile-Cys]-lys(DOTA)-NH2]
{DOTA(In)-Ttds}-DW[Trp(5-Cl)]PE[dL]C[Aib]LI[Cysteamide] (linker 7-11 via 3MeBn; also: DOTA as indium complex (InDOTA)) [InDOTA-Ttds-Asp-Trp-5Clw-Pro-Glu-leu-[Cys(3MeBn)-Aib-Leu-Ile-AET]]
{LuDOTA-Ttds}-DW[Trp(5-Cl)][Hyp]E[dL]C[Aib]LI[Cysteamide] (linker 7-11 via mXylylene) [LuDOTA-Ttds-Asp-Trp-5Clw-Hyp-Glu-leu-[Cys(3MeBn)-Aib-Leu-Ile-AET]]
{DOTA-Ttds}-D[Trp(6-F)][Trp(5-Cl)]PE[dL]C[Aib]LI[Cysteamide] (linker 7-11 via mXylylene) [DOTA-Ttds-Asp-6Fw-5Clw-Pro-Glu-leu-[Cys(3MeBn)-Aib-Leu-Ile-AET]]
{DOTA(In)-Ttds}-DW[Trp(5-Cl)]PE[dL]C[αMeS]LI[Cysteamide] (linker 7-11 via 3MeBn; also: DOTA as indium complex (InDOTA)) [InDOTA-Ttds-Asp-Trp-5Clw-Pro-Glu-leu-[Cys(3MeBn)-Ams-Leu-Ile-AET]]
{AGLU-Glutaryl}-DW[Trp(5-Cl)][Hyp]E[dL]C[Api](ZnDOTA)LI[Cysteamide] (linker 7-11 via Pyridine(2,6-diCH2)) [AGLU-Glutar-Asp-Trp-5Clw-Hyp-Glu-leu-[Cys(2Lut)-Apc(ZnDOTA)-Leu-Ile-AET]]
{DOTA(In)-Ttds}-DW[Trp(5-Cl)][Sar]E[dL]C[Aib]LI[Cysteamide] (linker 7-11 via 3MeBn; also: DOTA as indium complex (InDOTA)) [InDOTA-Ttds-Asp-Trp-5Clw-Nmg-Glu-leu-[Cys(3MeBn)-Aib-Leu-Ile-AET]]
{DOTA-dGlu(AGLU)-AEEA}-DW[Trp(5-Cl)][Pro(trans-4-NH2)]E[dL]C[Api]([Glutaryl-NH(1-deoxy-D-glucityl)])LIC-{APAc-dGlu(AGLU)-NH2} (linker 7-11 via 2Lut; reading uncertain)
